These results are taken from the supplement of paper PMC12764529.

± gives the half width of the 95% confidence interval.

Data set [1] can be described thus: folding stability dG unfold (combined trypsin and chymotrypsin); higher = more stable. Summed up:
(§1)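 Mini-proteins designed to be under 80 residues and free of cysteine were carried in a PA-tagged cDNA display construct and digested with trypsin and with chymotrypsin. Each protease was applied at 11 threefold-diluted concentrations, alongside a no-protease condition, before sequencing. K50 came from Bayesian fitting of the sequencing counts, and unfolding free energy was obtained by comparing it with a sequence-predicted unfolded-state K50 and a shared folded-state K50, for each protease separately or for both together. Designs were retained only if their AlphaFold2 dimer inter-PAE exceeded 15.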

A short description of data set [2]: folding stability dG unfold from chymotrypsin proteolysis; higher = more stable. The essentials:
as §1

A short description of data set [3]: folding stability dG unfold from trypsin proteolysis; higher = more stable. The essentials: as §1

As to “SAGGTLEEFARDLAKELAKENGGKNVPFEIEIPVKMEWYPSPDGDPEPIMTHPMRIRIQFQIPPGQPSAGGS [r16_156_TrROS]”, the “folding stability dG unfold” value stood at 1.08 ± 0.15 kcal/mol in data set [1], 1.53 ± 0.14 kcal/mol in data set [2] and 0.389 ± 0.11 kcal/mol in data set [3].
Turning to “SAGGTLRNMPVEQIAKRLQNHGYEIKVENIRHNEDRVRIKIEVERRNKNGKPHEEVKISIEIPDPDDFSAGG [r13_566_TrROS]”, the “folding stability dG unfold” value was 0.559 ± 0.27 kcal/mol in data set [1], 0.403 ± 0.15 kcal/mol in data set [2] and 0.461 ± 0.23 kcal/mol in data set [3].
On the same counts, the results for “SAGGTLTLLVEVDGLLVRVTAEVRLVYDPETDELTLEVRVRVEVRPLPAPPPPLVVVRDADGRLRLLSAGGS [r8_46_TrROS_Hall]” are 2.22 ± 0.08 kcal/mol, 2.71 ± 0.042 kcal/mol and 1.03 ± 0.095 kcal/mol.
For the sequence “SAGGTMTIEAWVKYKDMTPEEMREQAKEIAENIMNMMRQRGFPIKKIEVDVEQDPGNGWVQVTIEIEFSAGG [r13_212_TrROS]”, the entries for the “folding stability dG unfold” value in data set [1], in data set [2] and in data set [3] were 4.24 ± 0.18 kcal/mol, 4.62 ± 0.13 kcal/mol and 3.45 ± 0.15 kcal/mol, respectively.
“SAGGTPVVVPATITVPVPFGAPARVTIFTPEDGHVLALIELPDGAVLVATFDPTTGELHVAPYADAASAGGS [r16_735_TrMRF]”: the “folding stability dG unfold” value in data set [1] worked out at 2.23 ± 0.14 kcal/mol; in data set [2], 2.78 ± 0.06 kcal/mol; in data set [3], 1.19 ± 0.061 kcal/mol.
As for “SAGGTVTIFIPGMSLDQIKKFIKFFRDNPDRPVTIHMPNGYMIEIDPKGKIDNIKVRRMPPMPEDDQSAGGS [r16_248_TrROS]”, the “folding stability dG unfold” value was determined as 2.53 ± 0.12 kcal/mol in data set [1], 2.93 ± 0.046 kcal/mol in data set [2] and 1.52 ± 0.036 kcal/mol in data set [3].
For “SAGGVEEAREALEEAGFEIVDVDEETGTVTVRNEETEETITVRVEAPAPPPVEVEEEVEVEEEEEEESAGGS [r16_197_TrROS_Hall]”, the “folding stability dG unfold” value in data set [1] was 1.34 ± 0.096 kcal/mol; in data set [2], 1.48 ± 0.12 kcal/mol; in data set [3], 1.14 ± 0.089 kcal/mol.
For the sequence “SAGGVEEIVEKLPEEAEEVEITSEPHPLPGSTLTKYTIKAKNSATGKTKTYEVTVLYDPEGNVLEVLLSAGG [r13_358_JUSTAS]”, the “folding stability dG unfold” value worked out at 2.22 ± 0.19 kcal/mol in data set [1], 2.74 ± 0.082 kcal/mol in data set [2] and 1.7 ± 0.061 kcal/mol in data set [3].
With “SAGGVITIRIPGIDNRNPETMRSKAVEIADRLRDHGVTVTDVEWDPDQGSMTITVMLPGQSLEDILKSAGGS [r8_344_TrROS]”, the “folding stability dG unfold” value in data set [1] came to 2.42 ± 0.084 kcal/mol; in data set [2] it was 2.69 ± 0.051 kcal/mol; in data set [3], 1.89 ± 0.062 kcal/mol.
For the sequence “SAGGVLLEFPDGTTVEITVTTSTSTFKDPTTDKTVTKSSTTITVTRKTPDPVVTPVPASEAQRIFDSTSAGG [r13_809_JUSTAS]”, the “folding stability dG unfold” value in data set [1] is 2.47 ± 0.21 kcal/mol; in data set [2], 2.96 ± 0.2 kcal/mol; in data set [3], 2.13 ± 0.079 kcal/mol.
On the same counts, the results for “SAGGVLTRVEIEIVEPGTGVPKRFEALLETGDDGTITLLLPDGTVIELPPTANIKILSEEVLSPSELSAGGS [r16_223_JUSTAS]” are 1.37 ± 0.21 kcal/mol, 0.0233 ± 0.17 kcal/mol and 2.02 ± 0.1 kcal/mol.
In the case of “SAGGVPLLSAELLTTDETGNRTYRLVYYDPSTGKVYEVVVSQPFPTGDFNPFLFTASSLEEALELVTSSAGG [r13_26_TrMRF]”, the “folding stability dG unfold” value in data set [1] came out at 2.7 ± 0.038 kcal/mol; in data set [2] it was 2.81 ± 0.038 kcal/mol; in data set [3], 2.61 ± 0.057 kcal/mol.
As for “SAGGWEIVGSITIEHPNRPIIFPVFRDPEEGNVWVSIYRMDPENGKWQPIGVVPFPKGDAEDALDDISAGGS [r8_423_TrROS]”, the “folding stability dG unfold” value in data set [1] was 1.53 ± 0.16 kcal/mol; in data set [2], 1.86 ± 0.11 kcal/mol; in data set [3] it was 1.03 ± 0.054 kcal/mol.
“SAGGWITPELIEEIAKTIAEENPENGKEVPIEVVIPFPNSVIKIEIEFDPSNGKIEIEDIKVIPPNDLSAGG [r13_37_TrROS]”: the “folding stability dG unfold” value was 1.16 ± 0.28 kcal/mol in data set [1], 1.5 ± 0.12 kcal/mol in data set [2] and 0.67 ± 0.12 kcal/mol in data set [3].
As to “SAGGWIWIPPDDPEDAKEWARELVLMFANHMKEQGQEDMTVDVDIHVWDPKDGNWYRIPVEFRVKPDSAGGS [r8_163_TrROS]”, the results for the “folding stability dG unfold” value in data set [1], in data set [2] and in data set [3] were 2.19 ± 0.13 kcal/mol, 2.31 ± 0.12 kcal/mol and 1.97 ± 0.044 kcal/mol, respectively.
For “SAGGWRYILRQIREAAKNGEEVTINFPPGMNPSFLLSWIRKENGAEVKPITVKPNPNGYGTINIKVKSAGGS [r16_318_TrROS]”, the “folding stability dG unfold” value is 1.8 ± 0.073 kcal/mol in data set [1], 2.02 ± 0.057 kcal/mol in data set [2] and 1.39 ± 0.054 kcal/mol in data set [3].
Consider “SAGGWTIREILEKNPNLREFAKEGWTIEIYYPNGKSGRVKIKEGSADDILDDINKNFPGPVEISITKSAGGS [r16_655_TrROS]”, for which the “folding stability dG unfold” value in data set [1] was 0.573 ± 0.14 kcal/mol; in data set [2] it was 0.437 ± 0.23 kcal/mol; in data set [3], 0.659 ± 0.072 kcal/mol.
Turning to “SAGGYELELVFRFKLELKVGDGTLSFDLDLVIRIPLEPPAVPIGVEVKEDGSLVLTYPNGLKAEIPLSAGGS [r16_136_TrMRF]”, the “folding stability dG unfold” value worked out at 3.93 ± 0.087 kcal/mol in data set [1], 4.21 ± 0.06 kcal/mol in data set [2] and 3.32 ± 0.14 kcal/mol in data set [3].
